Measurements as given in patent publication US6825005B2, “Methods and reagents to regulate apoptosis” (President and Fellows of Harvard College, priority 2000, dated 2004).

Legend:
mtHsp70 = molecular target: T1, mtHsp70 (Homo sapiens, UniProt P38646); test: Coimmunoprecipitation-immunoblot with mtHsp70; type: binding; settings: endogenous proteins, U2OS cells
T1 construct: immunoprecipitate endogenous hTid-1L and hTid-1S in complex with mtHsp70 from human U2OS cells; endogenous in cells
Description: Immunoprecipitation. One 10-cm Plate of SAOS-2 Cells was Trypsinized, Washed in PBS, and lysed in 1% NP40/150 mM NaCl/50 mM Tris HCl, pH 8.0/1 μg/ml each aprotinin and leupeptin/0.01% PMSF on ice. The sample was split into four fractions and incubated for 1 hour with either anti-hTid-1, anti-mtHsp70, or anti-Hsc70 mAbs. Immune complexes were collected on protein G agarose beads (GIBCO) and washed three times in 0.1% NP40 lysis buffer. Samples were then separated by SDS/PAGE, transferred to poly(vinylidene difluoride) membrane, and probed with either anti-mtHsp70, anti-Hsc70, or anti-hTid-1 mAbs. Proteins were visualized by ECL (Amersham Pharmacia) by using x-ray film.

caspase 3 = test: Pro-caspase 3 cleavage and activation, immunoblot and fluorogenic activity assay, U2OS cells treated with TNF; type: cell-based, human; settings: inducible U2OS lines, TNF treatment
Description: Caspase Activation and Cytochrome c Release Assays. U2OS Cells were Induced for 24 hours with 1 μM muristerone and treated for the indicated time with 10 ng/ml TNF plus 30 μg/ml cycloheximide. Cells were trypsinized, washed in PBS, and resuspended in lysis buffer (1% NP40/50 mM Tris HCl/150 mM NaCl, pH 8.0/1 μg/ml each aprotinin and leupeptin/0.01% PMSF), and protein concentration was analyzed by using the Bradford method (Bio-Rad). Sixty micrograms of total cell lysate was then analyzed by Western blot analysis using mAb specific for pro-caspase 3 and pro-caspase 8.
Caspase activity was measured by using fluorescent caspase 8 and caspase 3 activity assays (CLONTECH). Inducible U20S cells were induced with muristerone for 24 hours and treated with 10 ng/ml TNF plus 30 μg/ml cycloheximide for 4.5 hours. Cells were trypsinized, combined with apoptotic cells in the tissue-culture media, counted, and assayed for caspase activity by the manufacturer's protocol on a fluorescent plate reader (excitiation 380 mn, emission 530 nm). For caspase 8 activity, 1×10^6 cells of each line were used, and for caspase 3 activity, 3.5×10^5 cells of each line were used.

[1] = tested on: cytochrome c release from mitochondria; test: Cytochrome c release assay, immunoblot of cytoplasmic extracts of U2OS cells treated with TNF; type: cell-based, human; settings: inducible U2OS lines, TNF treatment
Description: For cytochrome c release assays, U2OS cells were induced with muristerone for 24 hours and treated with 10 ng/ml TNF plus 30 μg/ml cycloheximide for 4.5 hours. Cells were then trypsinized, resuspended in sucrose buffer, homogenized in a Teflon tissue homogenizer, and centrifuged at 10,000×g for 10 minutes as described above. Postmitochondrial supernatant (100 μg of protein) was then analyzed by Western blot analysis for the presence of cytoplasmic cytochrome c. Cytochrome c levels were quantitated by using NIH IMAGE software.

U2OS cells = test: Apoptosis assay, Hoechst-stained apoptotic nuclei counted in inducible U2OS cells; type: cell-based, human; settings: cell line expressing the protein, treated with MMC or TNF-alpha
Description: Cell Lines and Reagents. U20S Cells were Cultured in DMEM Containing 10% Fetal Calf serum supplemented with 50 units/ml penicillin and 50 μg/ml streptomycin. Inducible hTid-1L, hTid-1S, H121QL, and H121QS were expressed in U20S cells from a plasmid containing a muristerone-inducible promoter (Invitrogen). Inducible cells lines were cultured under constant selection with 50 μg/ml Zeocin (Invitrogen) and 300 μg/ml G418. Gene expression was induced with 1 μM muristerone (Invitrogen) for 24 hours. SAOS-2 cells were cultured in DMEM containing 15% fetal calf serum and 50 units/ml penicillin and 50 μg/ml streptomycin.
Apoptosis Assays. Inducible U2OS Cells were Induced with 1 μM Muristerone for 24 hours, or went uninduced and were treated with either the indicated concentration of mitomycin c (Sigma) for 24 hours or the indicated concentration of TNF plus 30 μg/ml cycloheximide. Cells were fixed by exposure to methanol vapor for 10 minutes followed by immersion in methanol for at least 10 minutes. Cells were stained with 1 μg/ml Hoechst 33258 and 0.1% lowfat milk (Carnation) for 7 minutes and rinsed in water. Apoptotic nuclei were counted by using fluorescence microscopy. For transient-transfection experiments, U2OS cells were transfected by the calcium phosphate technique by using BES-buffered saline. […] Cells expressing green fluorescent protein were counted and scored for apoptotic nuclei.

T1 sequence (P38646 47-679): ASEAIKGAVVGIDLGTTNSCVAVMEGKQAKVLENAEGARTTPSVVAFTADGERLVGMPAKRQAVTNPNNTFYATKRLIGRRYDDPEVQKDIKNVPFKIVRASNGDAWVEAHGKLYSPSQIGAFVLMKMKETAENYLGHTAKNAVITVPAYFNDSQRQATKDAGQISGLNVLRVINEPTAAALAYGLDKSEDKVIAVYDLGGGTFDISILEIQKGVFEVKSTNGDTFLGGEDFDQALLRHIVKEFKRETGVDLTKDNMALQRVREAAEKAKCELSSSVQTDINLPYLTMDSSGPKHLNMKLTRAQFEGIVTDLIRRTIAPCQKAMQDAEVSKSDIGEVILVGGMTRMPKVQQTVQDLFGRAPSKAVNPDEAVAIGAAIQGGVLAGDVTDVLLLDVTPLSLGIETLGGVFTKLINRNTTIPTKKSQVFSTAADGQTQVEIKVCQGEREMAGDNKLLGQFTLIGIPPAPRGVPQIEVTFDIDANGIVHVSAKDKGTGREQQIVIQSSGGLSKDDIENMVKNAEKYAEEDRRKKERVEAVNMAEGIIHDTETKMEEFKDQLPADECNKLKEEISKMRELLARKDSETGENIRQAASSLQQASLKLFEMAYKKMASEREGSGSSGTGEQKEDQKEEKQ

Interaction with mtHsp70 (coimmunoprecipitation) (mtHsp70)	Molecule	Cleavage and activation of pro-caspase 3 relative to control cells (caspase 3)	Cytochrome c released from mitochondria relative to control cells [1]	Levels of apoptosis relative to control cells (U2OS cells)
interact specifically	hTid-1S: 40 kDa mitochondrial matrix splice variant encoded by human TID1, SEQ ID NO: 9; antiapoptotic (protein, listed as Homo sapiens) MAARCSTRWLLVVVGTPRLPAISGRGARPPREGVVGAWLSRKLSVPAFASSLTSCGPRALLTLRPGVSLTGTKHNPFICTASFHTSAPLAKEDYYQILGVPRNASQKEIKKAYYQLAKKYHPDTNKDDPKAKEKFSQLAEAYEVLSDEVKRKQYDAYGSAGFDPGASGSQHSYWKGGPTVDPEELFRKIFGEFSSSSFGDFQTVFDQPQEYFMELTFNQAAKGVNKEFTVNIMDTCERCNGKGNEPGTKVQHCHYCGGSGMETINTGPFVMRSTCRRCGGRGSIIISPCVVCRGAGQAKQKKRVMIPVPAGVEDGQTVRMPVGKREIFITFRVQKSPVFRRDGADIHSDLFISIAQALLGGTARAQGLYETINVTIPPGTQTDQKIRMGGKGIPRINSYGYGDHYIHIKIRVPKRLTSRQQSLILSYAEDETDVEGTVNGVTLTSSGKRSTGN	decreased cleavage and activation	release less cytochrome c	decreased levels of apoptosis
interact specifically	hTid-1L: 43 kDa mitochondrial matrix splice variant encoded by human TID1, SEQ ID NO: 8; proapoptotic (protein, listed as Homo sapiens) MAARCSTRWLLVVVGTPRLPAISGRGARPPREGVVGAWLSRKLSVPAFASSLTSCGPRALLTLRPGVSLTGTKHNPFICTASFHTSAPLAKEDYYQILGVPRNASQKEIKKAYYQLAKKYHPDTNKDDPKAKEKFSQLAEAYEVLSDEVKRKQYDAYGSAGFDPGASGSQHSYWKGGPTVDPEELFRKIFGEFSSSSFGDFQTVFDQPQEYFMELTFNQAAKGVNKEFTVNIMDTCERCNGKGNEPGTKVQHCHYCGGSGMETINTGPFVMRSTCRRCGGRGSIIISPCVVCRGAGQAKQKKRVMIPVPAGVEDGQTVRMPVGKREIFITFRVQKSPVFRRDGADIHSDLFISIAQALLGGTARAQGLYETINVTIPPGTQTDQKIRMGGKGIPRINSYGYGDHYIHIKIRVPKRLTSRQQSLILSYAEDETDVEGTVNGVTLTSSGGSTMDSSAGSKARREAGEDEEGFLSKLKKMFTS	more efficiently	more cytochrome c is released	markedly increased levels of apoptosis
